B1: Telomerase-associated protein of 45 kDa (Tetrahymena thermophila (strain SB210)), Q6JXI5 (parent)
chain: MEDNFELVFLKELPSLPDFSKVCFTGLILSFSNFPSSEQNQQKDVPHKIAIIQDSTGEAELFLDMYKFCQEEISVFKAITGIGVLKKKNIGAGQVCKIIVERFRIIHSADEEMLQYLLIQKYKLSKTLNEQQQIKQKEQQINQQKIDKVVQDKESKEHLLWKQQQIPQIKSNQENINTLKYKELIAGELMRITHKLLIQKLQQQQPANNNKQINEMDVESNELAEKKEVIIKIQEIAKDQQLYDTLSIQYQVDQKEQYYAKIAQSLEDFVSISALKMVSYIYPNISYQVSIGFFQNILDIATKTVKDRGALGCNYKYLKDKLTKALNLQQISYPLISESYISYLVHLFQDFNIIEIENEHKFYYKQAFQYDDS
partner: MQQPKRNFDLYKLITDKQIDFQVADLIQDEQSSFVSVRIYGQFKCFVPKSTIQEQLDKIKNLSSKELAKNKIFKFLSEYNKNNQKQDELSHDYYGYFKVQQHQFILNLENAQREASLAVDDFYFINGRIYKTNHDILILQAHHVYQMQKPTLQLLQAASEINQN
B2: Telomerase-associated protein of 19 kDa (Tetrahymena thermophila (strain SB210)), D2CVN7 (parent)
chain: B1 partner
partner: B1 chain

Variants of: B1
Conditions: with tap19_tetts TAP19, D2CVN7

| effect of a mutation on the interaction | Variant |
| --- | --- |
| disrupting interaction strength | A109R |
| disrupting interaction strength | A109W |
| disrupting interaction strength | M113W |
| disrupting interaction strength | E112R |

Variants of: B2
Conditions: with tap45_tetts TAP45, Q6JXI5

| effect of a mutation on the interaction | Variant |
| --- | --- |
| disrupting interaction strength | M147W |
| disrupting interaction strength | I161R |
| disrupting interaction strength | R38E |
| disrupting interaction strength | Y145A |
